Molecular target: CTBMPR (not stated | Human immunodeficiency virus 1 (HIV-1)) (UniProt P01556)
Test: SEC

Work on CTBMPR (from UniProt P01556 22-124) yielded a stoichiometry N of 5.
